The results in this text go back to a protein production outcome set (Wang et al. 2014).

The data set is described as follows: label from the status in PepcDB records.

In the case of “MANQLDASVKDDLKTQFVTREGTYRLLTLSEYSRPNRVGYSSNQSSPQVRVSMVTLPSPAQGKLGSDVGVGTPVGGGTAGANTTTTNGSSPGASPTGAAGASTAISNGGAGGDYSHSNHNSNSAGNNTVEARLGGGISMHSMMNGGVVDQNGVATNQVLGGDRICFNFGRDLYVYSFRGAKKGTEMSKPIDKKFYKGTNPSCHDFNISSATPTGAPLLVGFTTGQIQLVSPHVGPREVRKLFNEERLIDKTKVTCLKWLPNSPHLFLAAHASGHLYLYNEELPCAATAPSYQPFKLGDGYTILTSKSKTTRNPLFKWVFSTDNCCVNEFCFSPCGSHLAVVSQDGFLRVFHYDTMELLGIARSYFGGFLCVCWSPDGKYIVVGGEDDLVTVWSLHERRVVARGQGHRSWVSVVAFDPYTTSYTNWDGGDFSDDENQMNEYSHSREARFSGDSTANGGFEGFDRNSTPVHADRNGPHSASFRSDASSAEKLMSYRLGSVSQDTQICLWDITEDVLRHPLVLRQPANSERAYLNGGVDEEAEAEDGIKVIRPVAMSGQATGQQAESGSCSPTREAAGGGTGNGAGEHSNSSSSKFSTANCTISSQSSPDDCDTEAATPASTSSNAGAGSVAGAGAVASTKQNNRNHGTGNSIKFPNCISATKSDSIDGGGGSGSGQRPSQTTSGYNSKTSNSSNKSSNSGSGFSAFNSLTQRLSNFSFLSSSEKKGAGYEGSHSTAHRQHRKAMSMLKSYNQHNHTGGHNNHSQSNNSSSSNFGHSSTLDSNAAGAIGSSSTAHSFGSLKLSRSSHHSSLATAAHASGSAAGSGSGVSSFDPMQLIGTPACPRFDECPLLEPLVCKKIAHERLTALIFREDCFLTACQDGFIYTWARPGHATHATQHLSPGQAAAPGGTVI”, the protein production result is recorded as “failed”.
For the sequence “MANVSLNKVDKQALVHQPNLLRECFALLVNAHYQTSPNDLLHLLRDDNSSVYLAMDKQNIIGVILTVEEGGLDDELIEAIQLGQRRPKGHLTPITIINQLGLVKVGKLITSRVMRIAVHPDLQGSGIGKRMLTLLEESVGAHVDYLSTSFGATDELIQFWQQAGYQSIRLGTMRDAASGCYSLLMVRQLANKSQ”, the protein production entry is listed as “failed”.
To “MANWLNQLQSLLGQSSSSTSSSADQGLGKLLVSGALGGLAGLLVANKSARKLLTKYGTNALLVGGGAVAGTVLWNKYKDKIRAAHQDEPQFGAQSTPLDERTERLILALVFAAKSDGHIDANERAAIDQQLREAGVEEQGRVLIEQAIEQPLDPQRLATGVRNEEEALEIYFLSCAAIDIDHFMERSYLNALGDALKIPQDVREGIERDLEQQKRTLAE” belongs “failed”; to “MANWRGAGDSLSTGTGGSEAPPRKSPARLHQWRKLRVSHDDRTCPYQRCRHHLLRRIADARRRYRLLCRRSEHEHSRRVDRSFAEARHGRRRPGRCRSSHPQGCGHRQRDPHKIMSAAPAAPALDALGPDTPAHTVDAFHRGRFWLVQPKHGGHRAGMDAMMLAASVPSVFGGRLADFGAGAGAAGLAVLSRCPAARAVLVERAPEMAAFASATLAHPGNAHLSDRASVLVADVTVSGQARVAAGLADNDFDYVIMNPPFNAARDRATPDRLRKEAHVMEDGLFESWIRSAAAVVRPRGGLAVIARPEQLGAILDAMSGRFGDAEMLAVHPRPDAAAIRIIVRAALGARGKLAIRPPLMLHAQAGNGPDERSEMITNGLASLFGD”, “failed”.
To “MAPAKSPRAWQRMLSGRRLDLLDPSPLDVEIADIAHGLARVARWNGQTRGDHAFTVAQHCLIVETIFCRMCPGATPDEMQMALLHDAPEYVIGDMISPFKSVVGGGYKTVEKRLEAAVHLRFGLPPHASRELKDRIKKADTVAAFFEATELAGFSTAEAQKFFGLPRGITRDMFDIIPLPSTEAQRLFIARFEAIETLRVTRTGGAV” belongs “not failed”; to “MAPDNDHFLDSPSPPLLEMRHHQSATENGGGCGEIVEVQGGHIVRSTGRKDRHSKVCTAKGPRDRRVRLSAPTAIQFYDVQDRLGFDRPSKAVDWLITKAKSAIDDLAQLPPWNPADTLRQHAAAAANAKPRKTKTLISPPPPQPEETEHHRIGEEEDNESSFLPASMDSDSIADTIKSFFPVASTQQSYHHQPPSRGNTQNQDLLRLSLQSFQNGPPFPNQTEPALFSGQSNNQLAFDSSTASWEQSHQSPEFGKIQRLVSWNNVGAAESAGSTGGFVFASPSSLHPVYSQSQLLSQRGPLQSINTPMIRAWFDPHHHHHHHQQSMTTDDLHHHHPYHIPPGIHQSAIPGIAFASSGEFSGFRIPARFQGEQEEHGGDNKPSSASSDSRH”, “failed”.
To “MAPDQAKPAPFRDQFHRVLGVIRRGKLLILACVLLVVAPTIVFLQQATPRYTANAAVLIEAPDATDSLLDRSDMSRTRLNDLMITTEAEVLGSTPLARRVIDKLGLDQDPEFNARLRKPTAFQRVTFWLNPINWIPDGWRAGRKDEATMTPKVREELQRARVTATFLGRLSVKPKRRSFVIDLEFTATSREKSALIVNTLADLYVFDRLEAGFDETKRVNEWLAQRLESLRGDVALAEAAVETYRAENGLRPVGERQGTVANQQLTELNSRLVLARADLAQKQARLDQVRSLSRGGGVATASDVLQSSLIQQLRQREAEVRSALSEAEKTYGERHPKIIGMRADLGQLQSSIGGEIGKIASSAEGDVEIAAIGVRTLEREIVGLRQEGDVQGGAIVRLRELERQADSSRSLYEAFLSRFKRNAEQEQIQRANARLLSPADIPASPSYPRKIPILLVMMVVGFGLGIGLVFLVEGLDGTVHSTEELEALVGLPPLAVIPVVRGRGGGAVVLARPRAPIAHAFRNLRTALTLNGEETRRRIVMVSSSVPKEGKSFVSLGLALTYARAGERVLLIDADVHRSSLAATIGIDGTRGLAQVLRGEATLDQVVTRPPGMDLDFLAAGEASAQEELFDASTLGALLSEPASRYDRIIIDTAPVLAVADARIVAGVADQVIYLVRWGSTQQTAVRNGIKLLRDVRAPLAGMVLSQVDVRRHAVYGYGDYGASYGRYQEYYAE” belongs “failed”; to “MAPEMNNKLSYGEKKRAYVTFLAGTGDYVKGVVGLAKGLRKTKSKYPLVVAVLPDVPADHRRQLLDQGCVIKEIQPVYPPDNQTQFAMAYYVLNYSKLRIWKFVEYSKLIYLDGDIQVFENIDHLFDLPDGNFYAVKDCFCEKTWSHTPQYKIGYCQQCPDKVTWPESELGPKPPLYFNAGMFVYEPSLPTYYNLLETLKVVPPTPFAEQDFLNMYFKDIYKPIPPVYNLVLAMLWRHPENIELNEAKVVHYCAAGAKPWRFTGQEGNMEREDIKMLVEKWWDIYNDESLDYKNFNVHCGQKEDVHRKPKTLPQFFTDLSEADVLQCAKAPSAA”, “failed”.
Regarding “MAPHSLKKNYRCSRSLKQFYGGGPFIVSSDGSFIACACGDVINIVDSTDSSVKSTIEGESDTLTALALSPDDKLLFSAGHSRQIRVWDLETLKCIRSWKGHEGPVMGMACHASGGLLATAGADRKVLVWDVDGGFCTHYFRGHKGVVSSILFHPDSNKNILISGSDDATVRVWDLNAKNTEKKCLAIMEKHFSAVTSIALSEDGLTLFSAGRDKVVNLWDLHDYSCKATVATYEVLEAVTTVSSGTPFASFVASLDQKKSKKKESDSQATYFITVGERGVVRIWKSEGSICLYEQKSSDITVSSDDEESKRGFTAAAMLPSDHGLLCVTADQQFFFYSVVENVEETELVLSKRLVGYNEEIADMKFLGDEEQFLAVATNLEEVRVYDVATMSCSYVLAGHKEVVLSLDTCVSSSGNVLIVTGSKDKTVRLWNATSKSCIGVGTGHNGDILAVAFAKKSFSFFVSGSGDRTLKVWSLDGISEDSEEPINLKTRSVVAAHDKDINSVAVARNDSLVCTGSEDRTASIWRLPDLVHVVTLKGHKRRIFSVEFSTVDQCVMTASGDKTVKIWAISDGSCLKTFEGHTSSVLRASFITDGTQFVSCGADGLLKLWNVNTSECIATYDQHEDKVWALAVGKKTEMIATGGGDAVINLWHDSTASDKEDDFRKEEEAILRGQELENAVLDAEYTKAIRLAFELCRPHKVFELFSGLCRKRDSDEQIVKALQGLEKEEFRLLFEYVREWNTKPKLCHIAQFVLYKTFNILPPTEIVQVKGIGELLEGLIPYSQRHFSRIDRFVRSSFLLDYTLGEMSVIDPETVETEYPKDEKKKEKDVIAAMEQDTDELKQETPSRKRKSQKSKGKSNKKRLIAEAQGSVIAV”, the protein production result was “failed”.
For the sequence “MAPKAGKKPAEKKPAEKAPAEEEKVAEKAPAEKKPKAGKKLPKEAVTGGVEKKKKRVKKSTETYKIYIFKVLKQVHPDIGISSKAMGIMNSFINDIFEKLAQEASKLARYNKKPTITSREIQTAVRLVLPGELAKHAVSEGTKAVTKFTSS”, the protein production entry is “failed”.
To “MAPKDITFVERCYKYIDMNKNNWSPYTVTSTKSWVKNYIEPFFKNLKLTEVNPSSVQAFVNYNFNNSTFTSAKVRYSFLSSVIREAYRLREIQENSCDFIKLPLEHHHHHH” belongs “not failed”.
To “MAPLRTKAVEVLQRNSRGAFTVPAHGLYPYQWLWDSAFIALGWTQVDWERAWQELLCLFDYGQGPDGMLPHIVFHEQSRDYFPGPDVWGREARAQPATSGITQPPVVATVVRYLYEKDPDRDRARERARYLFPKLLAFHRWLYHARDPYRTGLVVIVHPWESGMDNSPAWDKPLSRVPVENLPPYERRDVKHVNPEERPRKEDYDRYLSLLYLFRRLEYDPREIYRQSPFKVVDVGFNAILQRANRDLYALAVLLQEDPYEIEEWIVRGEVGLEALWDREAGFYFSWDLVAGEPIAVKTSAGFLPLFAGTPHQGRASLLAQEAERWGEKARYLLPSVDPTSPFFEPGRYWRGPVWINVNWMVAEGFRDYGFAALAARLKADALALMEREGFREYYDPLTGQGRGGEGFSWSAALALFWTR” belongs “not failed”.
To “MAPRKRNPNGSGSIWQRKDGRYEARVYVPQPDGTRKRKTVYGTTWEECDTKRQELVLRDRQGIPTPTRSAKLSEWLPYWLKHYVEPRRKLSTYDKYEVQVRLYLVPLLGTRRLESLSVADVRRFITRVQNAHTAATAKESHRVLRTALTAAVREELITRNVASLVEPPRVKQREIRPWSLEETLSFLEAARSDPLYAAFVLAIAMGLRRGELGGLRWSDVDLDNRVVHVRQQTQRRRGTLYDDDPKSRRIRVVPMPALCIAPLRWHRLRQRETFARTGVAWCEAGYVFATRNGRPVEPRNVYRSFTRVAADAGLRVVRLHDARHGCATLLTAAGVAPRVIMEILGHSQISITMDVYTHVVHDTQREAISHMDRLLKRRLPTSLSGGAGSIEFP” belongs “failed”.
For the sequence “MAQADTPAPVARLPRRRGIELALILMAVLLSVFGYCNVGLAQHDALPPGAAGYGAGLGVLALLAHLAVRLRAPYADPLLLPIGVLLNGLGLVLIYRLDLETPGDRAAPTQLVWSTLGVALFIVVVLLLRDHRVLQRYAYVCVAAALALLTVPIFFPAVNGARIWIRIEGFSIQPGEFAKVLLAVFFAAYLAANRSALAYAGRRVWRLQLPTGRVLGPILAVWLVSVGVLVLERDLGTSLLFFGLFVVLLYVATGRTGWIAVGLLLASLGAVAVGWLEPHVHSRVEDWLHPFASIEAGHGPNQLAQSLFAFAAGGVTGTGLGLGHSVLIGFAVKSDFILATAGEELGFLGLSAVFLLYGLLVERGYRAGLGARDPFGRLLAVGLSSIVALQVFVIAGGVTGLIPLTGMAMPFLAQGGSSVVTNWAIVALLIRVSHAARSQAGGRAEP”, the protein production entry is on record as “failed”.
To “MAQIISNAAVGRTLLILLLCAGVFFFIDFLVPALAALIICFSSWPLYKKLLVKCGGRSAVAASIALVLIVLGLITPLIFVFSYALQEIRIWAEWLVYANQHGAPVPLWIKDLPWVGEWLTLQWQQFIGEPHELGQIVSAISGQNLTGISRWVLQLGWNTLGLLLTLLFMLITLFFLYKDGESVAKQVDVVGERILPARWYRFSRVVPATVSSTVIGMTLIAIGEGIVLGIAYWIAGVPSAVAFGVLTAFMALIPGGAPTMFTLISLYLVGTGDMTAGVGLFLWGSIELFIVDKTLRPNLVGGPIKLPFLPTFFGLIGGVKTMGFVGLFVGPVLMALLVAIWREWLRDDPDTFVMPESLAPETLEADKVQRRLD” belongs “failed”.
